Binding signal data for 42 molecules are collected here from article PMC11417369, “DNA sequence and chromatin differentiate sequence-specific transcription factor binding in the human malaria parasite Plasmodium falciparum”.

First the molecules themselves.
B1: GTGCAC_site10115 (dsDNA)
DNA 1: TTTGTTTGTAAAATGTTGCACTTTCTTTTGCTGATA
DNA 2: TATCAGCAAAAGAAAGTGCAACATTTTACAAACAAA
B2: GTGCAC_site10708 (dsDNA)
DNA 1: TTCTAAAATTATATAGTGCAATTATATTAATTTTTC
DNA 2: GAAAAATTAATATAATTGCACTATATAATTTTAGAA
B3: GTGCAC_site9563 (dsDNA)
DNA 1: AAAATAATCTTTTGATTGCACTGTTACATTTTTTCT
DNA 2: AGAAAAAATGTAACAGTGCAATCAAAAGATTATTTT
B4: GTGCAC_negctrl_site161 (dsDNA)
DNA 1: AGAAAAAAAAAAAAAAATAAAAAAATAAATAAATAA
DNA 2: TTATTTATTTATTTTTTTATTTTTTTTTTTTTTTCT
B5: GTGCAC_site9605 (dsDNA)
DNA 1: AAGGGAAAAATATGGTTGCACTAAAAATATGTAATT
DNA 2: AATTACATATTTTTAGTGCAACCATATTTTTCCCTT
B6: GTGCAC_site9973 (dsDNA)
DNA 1: AATTAAAAGTGAAGAGTGCATAGAATTTTTTACTTT
DNA 2: AAAGTAAAAAATTCTATGCACTCTTCACTTTTAATT
B7: GTGCAC_site10627 (dsDNA)
DNA 1: TTAAGATACAAAAAAGTGCATATTTTTTAACAAAAA
DNA 2: TTTTTGTTAAAAAATATGCACTTTTTTGTATCTTAA
B8: GTGCAC_site10283 (dsDNA)
DNA 1: AAAATAATTTTATAAGTGCAAAATAGCTTATTTATA
DNA 2: TATAAATAAGCTATTTTGCACTTATAAAATTATTTT
B9: GTGCAC_site9771 (dsDNA)
DNA 1: GTACGTTTCTCCAGACTGCACTATACGACTCGTACA
DNA 2: TGTACGAGTCGTATAGTGCAGTCTGGAGAAACGTAC
B10: GTGCAC_negctrl_site309 (dsDNA)
DNA 1: AATGATGTTGTATTGTTTCGATATAACATCTAATTT
DNA 2: AAATTAGATGTTATATCGAAACAATACAACATCATT
B11: GTGCAC_negctrl_site185 (dsDNA)
DNA 1: AAAAGAAAAATGTCATATGATATCATATATTTTATA
DNA 2: TATAAAATATATGATATCATATGACATTTTTCTTTT
B12: GTGCAC_site9414 (dsDNA)
DNA 1: TTAAATATTTTTAGAGTGCATGTAATAAAAATATAA
DNA 2: TTATATTTTTATTACATGCACTCTAAAAATATTTAA
B13: GTGCAC_site10638 (dsDNA)
DNA 1: TAATATAATGATGCAGTGCATATGTTAAAATGAAAA
DNA 2: TTTTCATTTTAACATATGCACTGCATCATTATATTA
B14: GTGCAC_site10565 (dsDNA)
DNA 1: AAAAAAGAACGCATAGTGCATATCTAAAAGATTTTT
DNA 2: AAAAATCTTTTAGATATGCACTATGCGTTCTTTTTT
B15: GTGCAC_site10208 (dsDNA)
DNA 1: TTTTGTTATTAGAGGGTGCTTATAATGAACTCCTAC
DNA 2: GTAGGAGTTCATTATAAGCACCCTCTAATAACAAAA
B16: GTGCAC_site10715 (dsDNA)
DNA 1: TTTTTGTAACCGATTCTGCACTGAGAAGCACATATA
DNA 2: TATATGTGCTTCTCAGTGCAGAATCGGTTACAAAAA
B17: GTGCAC_site9741 (dsDNA)
DNA 1: ATTCATATTTTTCAAGTGCGCATTAAAATATTAACC
DNA 2: GGTTAATATTTTAATGCGCACTTGAAAAATATGAAT
B18: GTGCAC_site9816 (dsDNA)
DNA 1: AAGACATTTTTTAAGGTGCTTTGGAAAAAGGAGTAT
DNA 2: ATACTCCTTTTTCCAAAGCACCTTAAAAAATGTCTT
B19: GTGCAC_site10554 (dsDNA)
DNA 1: TATATATATATATGAGTGCATATGTGTAATATAAAA
DNA 2: TTTTATATTACACATATGCACTCATATATATATATA
B20: GTGCAC_site10402 (dsDNA)
DNA 1: TTACACATGTATTTGGTGCATGTTGTTAACAAAATA
DNA 2: TATTTTGTTAACAACATGCACCAAATACATGTGTAA
B21: GTGCAC_site9756 (dsDNA)
DNA 1: TACTTATTTAAAATAGTGCATGAATAGAAGATATAT
DNA 2: ATATATCTTCTATTCATGCACTATTTTAAATAAGTA
B22: GTGCAC_site10475 (dsDNA)
DNA 1: TAATGTTCCTATATAGTGCAATTATGTTTTATTTCT
DNA 2: AGAAATAAAACATAATTGCACTATATAGGAACATTA
B23: GTGCAC_site9599 (dsDNA)
DNA 1: TTATATGTATATATAGTGCAGAACAAAAGATTATAT
DNA 2: ATATAATCTTTTGTTCTGCACTATATATACATATAA
B24: GTGCAC_site10497 (dsDNA)
DNA 1: AAAAAAAAAAAATGTGTGCACATTATTTCAACTTAA
DNA 2: TTAAGTTGAAATAATGTGCACACATTTTTTTTTTTT
B25: GTGCAC_site9514 (dsDNA)
DNA 1: GTAGGATTTTCTTTTGTGCGCAATATAAAAAGAAAA
DNA 2: TTTTCTTTTTATATTGCGCACAAAAGAAAATCCTAC
B26: GTGCAC_site10046 (dsDNA)
DNA 1: TTTTTGTTATATAAAGTGCAGTGACAAGCAGTTTAA
DNA 2: TTAAACTGCTTGTCACTGCACTTTATATAACAAAAA
B27: GTGCAC_site10324 (dsDNA)
DNA 1: TTGTTTTATTATTCGATGCACTACAGAAATATATTC
DNA 2: GAATATATTTCTGTAGTGCATCGAATAATAAAACAA
B28: GTGCAC_site9681 (dsDNA)
DNA 1: ACTACGAATGGTAGAGTGCAGTCTGGAGAAAAGTAC
DNA 2: GTACTTTTCTCCAGACTGCACTCTACCATTCGTAGT
B29: GTGCAC_site10493 (dsDNA)
DNA 1: AAAGGATTTATACTAGTGCAAAAATATAAAAATATA
DNA 2: TATATTTTTATATTTTTGCACTAGTATAAATCCTTT
B30: GTGCAC_site10325 (dsDNA)
DNA 1: TATATACATGTGAGAGTGCATATAGACATAAAAAAT
DNA 2: ATTTTTTATGTCTATATGCACTCTCACATGTATATA
B31: GTGCAC_negctrl_site662 (dsDNA)
DNA 1: TTTTAATGAAATATCAAAAAAATTTATGATTTCAAA
DNA 2: TTTGAAATCATAAATTTTTTTGATATTTCATTAAAA
B32: GTGCAC_site10541 (dsDNA)
DNA 1: TTCAAATAAATAGTAGTGCATATTTATTAATGTAAA
DNA 2: TTTACATTAATAAATATGCACTACTATTTATTTGAA
B33: GTGCAC_negctrl_site37 (dsDNA)
DNA 1: AATAAATAAATAAATTAATAAATTAATAAATTAATA
DNA 2: TATTAATTTATTAATTTATTAATTTATTTATTTATT
B34: GTGCAC_negctrl_site558 (dsDNA)
DNA 1: AAATAATATATTCTATATAATAAATTATAAATATAA
DNA 2: TTATATTTATAATTTATTATATAGAATATATTATTT
B35: GTGCAC_negctrl_site256 (dsDNA)
DNA 1: AATGATTTTAAATGAACATAATTTATATTCATAACA
DNA 2: TGTTATGAATATAAATTATGTTCATTTAAAATCATT
B36: GTGCAC_negctrl_site587 (dsDNA)
DNA 1: AAAAAAATAAAATTATATAAAATAAATTTTTATAAT
DNA 2: ATTATAAAAATTTATTTTATATAATTTTATTTTTTT
B37: GTGCAC_site9560 (dsDNA)
DNA 1: ATACATCGTATATAAGTGCATATTAAGGTCTTAAGA
DNA 2: TCTTAAGACCTTAATATGCACTTATATACGATGTAT
B38: GTGCAC_site9782 (dsDNA)
DNA 1: AAAATATAAATTCATGTGCACATATATATTTTGTTA
DNA 2: TAACAAAATATATATGTGCACATGAATTTATATTTT
B39: GTGCAC_site10469 (dsDNA)
DNA 1: ATTTTCACCTGAACGGTGCATATTTAATTTTAGGTT
DNA 2: AACCTAAAATTAAATATGCACCGTTCAGGTGAAAAT
B40: GTGCAC_site10006 (dsDNA)
DNA 1: ATATATTAACAAAAGGTGCTTTTGGCAAAGTATAAT
DNA 2: ATTATACTTTGCCAAAAGCACCTTTTGTTAATATAT
B41: GTGCAC_negctrl_site531 (dsDNA)
DNA 1: AAATAAATTAAAATAAATTAAATTAAATTAGCATTA
DNA 2: TAATGCTAATTTAATTTAATTTATTTTAATTTATTT
B42: GTGCAC_site10457 (dsDNA)
DNA 1: TACAATATATTTATAGTGCATATTACTTTTAACTTT
DNA 2: AAAGTTAAAAGTAATATGCACTATAAATATATTGTA

The series has as its target AP2-I D3 (Plasmodium falciparum, UniProt Q8IJW6 910-1027). Description: gcPBM; about 25 ug protein; PBS, 1% milk, 0.2 mg/ml BSA, salmon testes DNA, 0.03% Triton X-100. The note with it: tags: N-terminal GST (pGEX-4T-1), kept; label: surface-attached array probe.
Regarding B1, the binding signal is 9.33 ln median PBM intensity, better of two orientations.

In the case of B2, the binding signal was 9.54 ln median PBM intensity, better of two orientations.

For B3, the binding signal is 9.41 ln median PBM intensity, better of two orientations. As for B4, the figure is 6.87 ln median PBM intensity, better of two orientations. As for B5, the figure is 9.25 ln median PBM intensity, better of two orientations; as for B6, 9.92 ln median PBM intensity, better of two orientations.

For the molecule B7, the binding signal was 9.96 ln median PBM intensity, better of two orientations. As for B8, the figure is 9.62 ln median PBM intensity, better of two orientations. As for B9, the figure is 9.61 ln median PBM intensity, better of two orientations; as for B10, 6.82 ln median PBM intensity, better of two orientations. As to B11, the binding signal is 6.79 ln median PBM intensity, better of two orientations. As for B12, the figure is 9.27 ln median PBM intensity, better of two orientations; as for B13, 9.15 ln median PBM intensity, better of two orientations. As for B14, the figure is 9.16 ln median PBM intensity, better of two orientations. As for B15, the figure is 9.87 ln median PBM intensity, better of two orientations; as for B16, 9.57 ln median PBM intensity, better of two orientations; as for B17, 9.34 ln median PBM intensity, better of two orientations. Consider B18, for which the binding signal is 9.5 ln median PBM intensity, better of two orientations. Take B19: the binding signal was 9.85 ln median PBM intensity, better of two orientations. Turning to B20, the binding signal was 9.49 ln median PBM intensity, better of two orientations.

For the molecule B21, the binding signal was 9.47 ln median PBM intensity, better of two orientations. With B22 the figure was 9.98 ln median PBM intensity, better of two orientations; with B23, 9.82 ln median PBM intensity, better of two orientations. As for B24, the figure is 9.36 ln median PBM intensity, better of two orientations.

For the molecule B25, the binding signal is 9.23 ln median PBM intensity, better of two orientations. With B26 the figure was 9.65 ln median PBM intensity, better of two orientations. With B27, the binding signal is 9.21 ln median PBM intensity, better of two orientations.

With B28, the binding signal was 9.19 ln median PBM intensity, better of two orientations. With B29 the figure was 9.74 ln median PBM intensity, better of two orientations; with B30, 10 ln median PBM intensity, better of two orientations; with B31, 6.64 ln median PBM intensity, better of two orientations. As for B32, the figure is 9.69 ln median PBM intensity, better of two orientations; as for B33, 6.84 ln median PBM intensity, better of two orientations; as for B34, 6.74 ln median PBM intensity, better of two orientations. Regarding B35, the binding signal was 6.86 ln median PBM intensity, better of two orientations. As for B36, the figure is 6.82 ln median PBM intensity, better of two orientations; as for B37, 9.59 ln median PBM intensity, better of two orientations. B38: the binding signal is 9.03 ln median PBM intensity, better of two orientations. With B39, the binding signal was 10 ln median PBM intensity, better of two orientations. As for B40, the figure is 9.45 ln median PBM intensity, better of two orientations; as for B41, 6.62 ln median PBM intensity, better of two orientations. As for B42, the figure is 9.8 ln median PBM intensity, better of two orientations.
